Data taken from US20220372200.

T1: poly[(KLAAm10-co-DMA30)-b-(DAAm140-co-DMA60)] (NP2)
T1 sequence: KLAKLAKKLAKLAK

T2: poly(KLAAm10-co-DMA10)
T2 sequence: KLAKLAKKLAKLAK

T3: poly[(KLAAm10-co-DMA10)-b-(DAAm280-co-DMA120)] (NP5)
T3 sequence: KLAKLAKKLAKLAK

T4: poly[(KLAAm10-co-DMA10)-b-(DAAm140-co-DMA60)] (NP4)
T4 sequence: KLAKLAKKLAKLAK

T5: poly[(KLAAm10-co-DMA30)-b-(DAAm70-co-DMA30)] (NP1)
T5 sequence: KLAKLAKKLAKLAK

T6: poly[(KLAAm10-co-DMA30)-b-(DAAm280-co-DMA120)] (NP3)
T6 sequence: KLAKLAKKLAKLAK

T7: KLA peptide acrylamide monomer (KLAAm)
T7 sequence: KLAKLAKKLAKLAK

T8: poly(PepAm21-co-DMA71) (P4)
T8 chain: GPLGLAGG

B1: thermolysin (protein)
chain: ITGTSTVGVGRGVLGDQKNINTTYSTYYYLQDNTRGNGIFTYDAKYRTTLPGSLWADADNQFFASYDAPAVDAHYYAGVTYDYYKNVHNRLSYDGNNAAIRSSVHYSQGYNNAFWNGSQMVYGDGDGQTFIPLSGGIDVVAHELTHAVTDYTAGLIYQNESGAINEAISDIFGTLVEFYANKNPDWEIGEDVYTPGISGDSLRSMSDPAKYGDPDHYSKRYTGTQDNGGVHINSGIINKAAYLISQGGTHYGVSVVGIGRDKLGKIFYRALTQYLTPTSNFSQLRAAAVQSATDLYGSTSQEVASVKQAFDAVGVK

What was measured:
[1] = test system: T1, poly[(KLAAm10-co-DMA30)-b-(DAAm140-co-DMA60)] (NP2)
poly(KLAAm10-co-DMA10) = test system: T2, poly(KLAAm10-co-DMA10)
[2] = test system: T3, poly[(KLAAm10-co-DMA10)-b-(DAAm280-co-DMA120)] (NP5)
[3] = test system: T4, poly[(KLAAm10-co-DMA10)-b-(DAAm140-co-DMA60)] (NP4)
[4] = test system: T5, poly[(KLAAm10-co-DMA30)-b-(DAAm70-co-DMA30)] (NP1)
[5] = test system: T6, poly[(KLAAm10-co-DMA30)-b-(DAAm280-co-DMA120)] (NP3)
[6] = test system: T7, KLA peptide acrylamide monomer (KLAAm)
[7] = biological target: T8, poly(PepAm21-co-DMA71) (P4)

Molecule	percent of KLA peptide left uncleaved after 1 h (HPLC) [1]	percent of side-chain peptides cleaved by HPLC (poly(KLAAm10-co-DMA10))	percent of KLA peptide left uncleaved after 1 h (HPLC) [2]	percent of KLA peptide left uncleaved after 1 h (HPLC) [3]	percent of KLA peptide left uncleaved after 1 h (HPLC) [4]	percent of KLA peptide left uncleaved after 1 h (HPLC) [5]	percent cleavage by HPLC [6]	cleavage of side-chain peptides monitored by HPLC [7]
trypsin	more than 70% of KLA peptide survived during the first hour of cleavage	more than 90% of the side-chain peptides were cleaved within 1 h	more than 70% of KLA peptide survived during the first hour of cleavage	more than 70% of KLA peptide survived during the first hour of cleavage	more than 70% of KLA peptide survived during the first hour of cleavage	more than 70% of KLA peptide survived during the first hour of cleavage	the KLA peptide underwent fast degradation, reaching 100% cleavage within 1 h	
B1								the polypeptide brushes were rapidly cleaved within 1 hour under the investigated conditions
